For data set [1] the following is noted: mouse, in vivo. How it is done:
Radiochemical synthesis and characterization. Complexation was achieved by reacting DOTATATE (5-10 μg in 5-10 μL water from 1.0 mg/mL solution) with ^225Ac(NO3)3 (3.4 MBq) that was diluted in 100 μL of water containing 10 μL of 20% L-ascorbic acid. The pH was adjusted to 5.5-6 using 1 M Tris buffer (10-12 μL), and then incubated at 60° C. for 1 h (FIG. 1). […] Animal studies. An equal number of male and female subjects were assigned to each experimental cohort. All the animals were purchased from Charles River (Wilmington, MA). Injected Activity Measurement. […] Activities in syringes were measured using the Atomlab 500 Dose Calibrator (Biodex). Per the manufacturer's recommendations, measurements were made for 2 mins using dial number 38.2 and the assumption that ^225Ac and daughters were in secular equilibrium. […] The α activity in μCi of each radionuclide was determined by fitting each peak with a multi-Gaussian fit and integrating to determine the net number of counts while incorporating the acquisition time. The net administered activities were determined by subtraction of the residual activity in the catheter and syringe from the dose calibrator measured pre-injection activity. […] Then, mice were weighed twice per week and monitored for 5 months for signs of distressed behavior, followed by euthanasia and tissue collection. […]

The nature of data set [2]: Maximum tolerated activity/toxicity in non-tumor bearing mice. The format is in vivo. The protocol:
(§1) Radiochemical synthesis and characterization. Complexation was achieved by reacting DOTATATE (5-10 μg in 5-10 μL water from 1.0 mg/mL solution) with ^225Ac(NO3)3 (3.4 MBq) that was diluted in 100 μL of water containing 10 μL of 20% L-ascorbic acid. The pH was adjusted to 5.5-6 using 1 M Tris buffer (10-12 μL), and then incubated at 60° C. for 1 h (FIG. 1). […] Animal studies. An equal number of male and female subjects were assigned to each experimental cohort. All the animals were purchased from Charles River (Wilmington, MA). Injected Activity Measurement. […] Activities in syringes were measured using the Atomlab 500 Dose Calibrator (Biodex). Per the manufacturer's recommendations, measurements were made for 2 mins using dial number 38.2 and the assumption that ^225Ac and daughters were in secular equilibrium. Activity was injected into each mouse via tail-vein catheter (50 μL dead volume). […] The α activity in μCi of each radionuclide was determined by fitting each peak with a multi-Gaussian fit and integrating to determine the net number of counts while incorporating the acquisition time. The net administered activities were determined by subtraction of the residual activity in the catheter and syringe from the dose calibrator measured pre-injection activity. Spectra for activity calculations were acquired ≥24 h post-radiosynthesis ensuring that ^225Ac and daughters were in secular equilibrium (see Robertson, A. K. H.; et al. Phys Med Biol 2017, 62 (11), 4406-4420). Maximum tolerated activity/toxicity. […] Then, mice were weighed twice per week and monitored for 5 months for signs of distressed behavior, followed by euthanasia and tissue collection. Blood urea nitrogen (BUN), creatinine, alkaline phosphatase (ALKP), alanine aminotransferase (ALT) and aspartate aminotransferase (AST) content in serum were analyzed using commercial IDEXX CLIP (IDEXX, Main, USA) and read by an automated biochemical analyzer (IDEXX Catalyst DX, Main, USA) following the manufacturer's protocol. Bone, bone marrow, brain, cecum, duodenum, kidney, liver, lymph nodes, muscle, pancreas, salivary gland, small intestine, and spleen were harvested and fixed in 10% formalin. Bone was decalcified in 14% ethylene diaminetetraacetic acid (EDTA) solution after fixation in formalin. All tissues were embedded in paraffin, sectioned (4-6 μm thickness), stained with hematoxylin and eosin (H&E), and examined by the veterinary pathologist (R.E.), in a blind manner. Biodistribution (BD). BD studies for ^225Ac-DOTATATE were performed using groups of normal non-tumor bearing BALB/c mice. […] Groups of animals were euthanized at 24, 48 and 96 h p.i., n=4 mice per time point, and tissues were removed and weighed. […] Radiation dosimetry. Dosimetry calculations were performed as previously described. […] The β decay branching ratio for ^217At to ^217Rn is only 0.01% therefore it was assumed that all decays of ^217At were by […] to ^213Bi. The branching ratios for decay of ^213Bi by 98% to ^213Po and by 2% to ^209T1 were accounted for in the calculation. Due to the relatively low LET and the small dimensions of the target tissues, the β emissions from ^217At, ^213Bi, ^209T1 and ^209Pb were assumed negligible and not included in the calculations (see Bolch, W. E.; J Nucl Med 2009, 50 (3), 477-84).
Anti-tumor efficacy. Efficacy studies were performed using NCI-H69 human SCLC and NCI-H727 lung carcinoid xenograft tumors in SCID mice. […] Animals were euthanized when the experimental endpoint of 2000 mm^3 tumor volume was reached. Any euthanasia performed prior to reaching 2000 mm^3 tumor volume were due to clinical endpoints, such as 20% weight loss, tumor ulceration, hunched back, scruffy fur (no longer grooming), lethargic or slow moving. Histology and immunohistochemistry (IHC). […]

The nature of data set [3]: Radiation dosimetry and clearance kinetics from BD data. Particulars: for Decay half-life, Teff: ^225Ac. Format: in vivo. How it is done:
as §1, with “(BD).” for “(BD). BD studies for ^225Ac-DOTATATE were performed using groups of normal non-tumor bearing BALB/c mice.”
Dosimetry calculations were performed using the generalized internal dosimetry schema of the MIRD Committee for α-particle emitters. According to MIRD #21, the absorbed radiation dose due to particle type x, Dx(rT, TD) is the mean energy imparted to target tissue rT per unit tissue mass, defined by Equation 1: […]
where A(rS, TD) is the total number of nuclear transitions in the […] (accumulated activity), Δi^x is the mean energy emitted per nuclear transition, φ(rT←rS; Ei^x) is the fraction of energy emitted per nuclear transition in the source region that is absorbed in the target region by the i^th emission that is emitted with initial energy E, k is a conversion factor, and M(rT) is the mass of the target tissue.

As to `C[C@@H](O)[C@H](NC(=O)[C@@H]1CSSC[C@H](NC(=O)[C@@H](Cc2ccccc2)NC(=O)CN2CCN(CC(=O)O)CCN(CC(=O)O)CCN(CC(=O)O)CC2)C(=O)N[C@@H](Cc2ccc(O)cc2)C(=O)N[C@H](Cc2c[nH]c3ccccc23)C(=O)N[C@@H](CCCCN)C(=O)N[C@@H]([C@@H](C)O)C(=O)N1)C(=O)O` [^225Ac-DOTATATE, metal not drawn], the “clearance of activity from the tissues” value in data set [1] is given as “largely cleared”. The clearance route entry in data set [1] is “primarily cleared by the renal route, with some hepatic clearance”. Also, in data set [2] (all dose levels), the survival result is recorded as “all animals survived to 5-months p.i”. Besides, the “treatment related pathologic changes in other studied organs (not kidney)” value in data set [2] (bone, bone marrow, brain, cecum, duodenum, liver, lymph nodes, muscle, pancreas, salivary gland, small intestine, spleen) was “None and no treatment related damage”. Moreover, the “ALKP among the cohorts (ANOVA and Dunnett's test)” value in data set [2] (mouse, in vivo) is on record as “no significant differences”. For the same molecule, in data set [2] (mouse, in vivo), the “ALT among the cohorts (ANOVA and Dunnett's test)” value is recorded as “no significant differences”. The “AST among the cohorts (ANOVA and Dunnett's test)” value in data set [2] (mouse, in vivo) is recorded as “no significant differences”. Also, the Liver enzymes result in data set [2] (mouse, in vivo) is listed as “normal”. In addition, the “acute kidney damage by pathology” value in data set [2] (mouse, in vivo) is “no acute kidney damage”. In addition, the “Decay half-life, Teff” value came out at 67.296 h in data set [3] (Brain); 1732.87 h in data set [3] (Heart); 53.318 h in data set [3] (Lung); 141.46 h in data set [3] (Muscle); 115.52 h in data set [3] (Pancreas); 90.019 h in data set [3] (Salivary). For the same molecule, the results for the “Decay half-life, Teff” value in data set [3] (Skin) and in data set [3] (Spleen) were 75.343 h and 111.8 h, respectively. Besides, the “calculated total absorbed dose” value in data set [3] (mouse, in vivo) was “minimal”.

The values above are taken from US20230382819A1, “PROCESSES FOR SYNTHESIS OF ALPHA-EMITTING RADIOPHARMACEUTICALS” (priority 2020, published 2023).
